Data taken from paper PMC3902040.

Molecular target: Factor H (CFH) (human) (UniProt P08603)
Assay: SPR

UniProt P08603, sequence (P08603 19-1231): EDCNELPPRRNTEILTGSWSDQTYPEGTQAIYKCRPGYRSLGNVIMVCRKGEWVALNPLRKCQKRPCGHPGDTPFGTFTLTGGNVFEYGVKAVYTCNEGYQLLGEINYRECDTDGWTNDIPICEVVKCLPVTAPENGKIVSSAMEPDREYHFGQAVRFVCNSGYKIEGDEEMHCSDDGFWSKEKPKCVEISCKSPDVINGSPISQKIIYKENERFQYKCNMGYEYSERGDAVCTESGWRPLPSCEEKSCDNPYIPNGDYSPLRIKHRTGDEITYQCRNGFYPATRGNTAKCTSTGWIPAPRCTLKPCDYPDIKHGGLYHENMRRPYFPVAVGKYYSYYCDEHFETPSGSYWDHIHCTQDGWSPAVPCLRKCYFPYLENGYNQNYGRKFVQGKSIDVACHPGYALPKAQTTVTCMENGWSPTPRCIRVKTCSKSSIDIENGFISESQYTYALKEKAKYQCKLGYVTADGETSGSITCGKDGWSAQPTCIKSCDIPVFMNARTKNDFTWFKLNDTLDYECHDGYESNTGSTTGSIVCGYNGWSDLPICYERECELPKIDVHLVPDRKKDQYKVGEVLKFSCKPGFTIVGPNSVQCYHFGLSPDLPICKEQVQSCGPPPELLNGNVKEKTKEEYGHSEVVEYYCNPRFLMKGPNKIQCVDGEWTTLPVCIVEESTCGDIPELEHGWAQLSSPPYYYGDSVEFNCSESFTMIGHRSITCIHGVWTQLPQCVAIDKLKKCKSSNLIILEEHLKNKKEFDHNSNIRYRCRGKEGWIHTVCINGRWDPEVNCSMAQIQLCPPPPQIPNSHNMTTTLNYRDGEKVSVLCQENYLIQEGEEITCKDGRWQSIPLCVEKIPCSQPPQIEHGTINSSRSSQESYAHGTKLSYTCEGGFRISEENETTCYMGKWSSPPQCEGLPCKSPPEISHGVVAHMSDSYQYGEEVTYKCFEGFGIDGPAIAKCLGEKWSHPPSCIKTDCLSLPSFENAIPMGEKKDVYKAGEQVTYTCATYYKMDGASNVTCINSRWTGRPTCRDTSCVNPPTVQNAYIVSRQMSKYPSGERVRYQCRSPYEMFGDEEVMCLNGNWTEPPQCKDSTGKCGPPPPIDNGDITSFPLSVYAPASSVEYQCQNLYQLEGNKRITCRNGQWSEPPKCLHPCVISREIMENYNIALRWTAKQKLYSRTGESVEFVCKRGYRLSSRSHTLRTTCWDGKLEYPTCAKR

Substance: 155Q C3 protein (C3 K155Q variant, rs147859257), methylamine-treated C3 (MA) (natural protein)
- reduced binding against 155K C3 (percent): 60%
